Data on 2 molecules can be found in article PMC3905896 (Nucleic Acids Research, 2013).

For test [1], the target named is T1, PtxS (assayed together with PtxR at Pgad) (Pseudomonas aeruginosa, UniProt G3XD97).
T1 sequence (G3XD97 1-340): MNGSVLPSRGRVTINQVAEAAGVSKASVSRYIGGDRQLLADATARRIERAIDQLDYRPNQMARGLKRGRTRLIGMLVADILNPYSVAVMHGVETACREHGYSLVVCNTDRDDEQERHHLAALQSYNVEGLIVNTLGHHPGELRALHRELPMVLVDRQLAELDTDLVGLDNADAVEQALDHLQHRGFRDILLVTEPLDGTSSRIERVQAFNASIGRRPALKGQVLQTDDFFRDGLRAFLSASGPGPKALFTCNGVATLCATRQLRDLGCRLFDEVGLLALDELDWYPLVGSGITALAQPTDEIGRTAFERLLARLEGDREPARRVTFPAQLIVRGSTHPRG
The format is biochemical.

The target of another test is T2, PtxR (Pseudomonas aeruginosa, UniProt P72131 1-312).
T2 sequence (looked up): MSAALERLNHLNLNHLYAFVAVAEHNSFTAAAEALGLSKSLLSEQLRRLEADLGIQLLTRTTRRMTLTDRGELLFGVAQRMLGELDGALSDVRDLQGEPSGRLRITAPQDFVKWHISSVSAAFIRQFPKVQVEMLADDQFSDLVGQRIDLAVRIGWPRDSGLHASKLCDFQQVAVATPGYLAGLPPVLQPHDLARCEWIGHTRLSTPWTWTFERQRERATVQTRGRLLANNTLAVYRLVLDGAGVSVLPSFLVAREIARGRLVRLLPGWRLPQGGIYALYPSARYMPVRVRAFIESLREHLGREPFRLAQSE
Put plainly: ITC. For orientation: In ITC the heat of successive injections is recorded.

In general, EC50 refers to the concentration giving half of the maximal effect. Low readings indicate greater potency, high ones weaker potency. `O=C(O)C(=O)[C@@H](O)[C@H](O)[C@H](O)CO` [2-ketogluconate]: in test [1], the EC50 was 78 µM. This lies in the double-digit micromolar range.

B1: PtxS (natural protein, Pseudomonas aeruginosa, UniProt G3XD97 1-340, looked up)
chain: T1 sequence (G3XD97 1-340)
On to B1, for which, in the test with PtxR, the “KD of the first binding event” value worked out at 0.012 ± 0.002 µM, the “KD of the second binding event” value is 0.099 ± 0.008 µM, the “dH of the first binding event” value was -114 ± 2.93 kJ/mol and the “dH of the second binding event” value is -54.4 ± 3.35 kJ/mol.
